# Test results as given in the DeepSol protein solubility set.
# Experiment: soluble on expression in E. coli; label from the status in PepcDB or PDB records
row,Sequence,soluble on expression in E. coli
1,MSDLNNAIQGILDDHVARGVVGVSLALCLPGEETSLYQSGYADKFNKMPMTGDHLFRIASCTKSFIATGLHLLVQDGTVDLDEPITRWFPDLPKAAQMPVRILLNHRSGLPDFETSMPMISDKSWTAQEIVDFSFRHGVQKEPWHGMEYSNTGYVLAGMIIAHETGKPYSDHLRSRIFAPLGMKDTWVGTHETFPIEREARGYMHAAADDENPQWDVSGAGDPVDGVWDSTEWFPLSGANAAGDMVSTPRDIVKFLNALFDGRILDQKRLWEMKDNIKPAFFPGSNTVANGHGLLLMRYGSSELKGHLGQIPGHTSIMGRDEETGAALMLIQNSGAGDFESFYLKGVNEPVDRVLEAIKNSRS,soluble
2,MSILLVKNAQIVNDDAIFVADILIEDGIIQNVAPNLEAPEGAEVLDAAGKLALPAGIDVYTQVTDSSVDDLSTGCKSAIAGGTGTIVEVVRPRGAESVVSAVKRVKNQLEKSGISCHVALSVAITDFCEQEMSELVKNEGINSFVLDGVSLTDDKLLELFEHVKRLGALIRVVPENKSIVAMLEKKMLKLGVTGPEGFPQSRPESLEADRVSGVCVLGNLASCPISIVQVSSADSLAAIEKARASGALAHAEIASAAVTADGSALFSQDLRFASAHLTDVPLRRGAPDRMIGALSTQPLVVCTSGHRPVNSATRVAAKDFAIAQKGSTGAEERMAVVWERAVRSGRIDAMRFVAVTSTNAAKMFNMYPKKGRIAVGADADLVIWDASGKRVLESSRAQSSQENSMYDGLTVHSVVTATIVGGKIAYQNGEVREAPVAGGFLRLSPNSPYLFSMVGQRDKFANVERVEREASSQQQKPQQNGHHKNSGDFDRNRTKVMESSIDFGGSAANRPRNPPGGRTTGFW,not soluble
3,MGSDKIHHHHHHMVMNRSSLDGFFDPSYLENILGNFTQATGLRIEAVNYRGETFSIPGSLDRSPFCQCIRNNPQGNKRCIDSYKRATSEAVKWDEPYFFRCHAGLVIWAVPILSKDITLGSIICGQVLLWKPDRFFIQELQDISKGLKIDPEELNQAVPNLSIISADQAQAAANLLFVVVSHILKNNLRALEEEKAYKVLQQQLHDQILKRKKGPRRTDISYESILKDERRFLQYIRLGDKSRAFATLENLIIKIYTKSTGEPQLAKDRIVELAALTSRAAVEGGSDAEQAVTILSSFYKKLENMERVEEIIYFIKQIVDEFLENIFILADKKHLSLVKDARSFILHNHAQPLTIADAAQHLFISPSHLSRLFRQQLDCTFNDYLTRVRVEKAVELLKKPEFSVKDVALAVGFQNQSHFAKVFRKYIGVTPLVYRNSLF,not soluble
4,MSLIRWCFTMKLAVIGGGDLQDSNHSPINERLIELTNKQYPKVLFIPTASHDDESYIKLFLDTFEKQLHCDVQILGIIADTPSKYEIDEMIQSADLIYLGGGNYIQMVTEWKEHKLDEKLLLALEQGTLIAGYSAGAMCWFTSSIRSDYEGSGYIESNGWGIVNKRFCPHYNQLNRMNAFHSFLQNHQGNIEGIALEDNCALYITEESFEIIGEPEKAWEFYMSDNKLIRQHFDITLKSYLEGHHHHHH,not soluble
5,AYKVTLKTPDGDITFDVEPGERLIDIGSEKADLPLSCQAGACSTCLGKIVSGTVDQSEGSFLDDEQIEQGYVLTCIAIPESDVVIETHKEDEL,soluble
6,MSAQDFLVELGTEELPPKALASLGDAFLAGIEKGLQAAGLNYTGKQVYAAPRRLAVLIRQLDVQQPDRSINIDGPPLQAAFNAEGEPTQAALGFAKKCGVELAEIDQSGPKLRFSQHIPGKATVGLLPTIVEDSLNDLPIPKRMRWAASREEFVRPTQWLVMLLGDQVVDCTILSQKAGRESRGHRFHHPENVLITTPANYVEDLRKAYVLADFAERRELISKRTAELAMQQEGTAIVPPALLDEVTALVEWPVPLVCSFEERFLEVPQEALITTMQDNQKYFCLLDSEGKLLPRFITVANVESRDPKQIVQGNEKVVRPRLTDAEFFFKQDKKQPLETFNERLKNVVFQAQLGTVYDKAERVSRLAAFIAPLIGGDAQRAGRAGLLSKCDLATEMVGEFPEMQGVAGYYYALNDGEPEDVALALNEQYMPRGAGAELPQTLTGAAVAIADKLDTLVGIFGIGMLPTGSKDPYALRRAALGVLRILIEKQLDLDLTGAVEFAVKQFGAKIKAPGLAEQVLEFIFDRLRARYEDEGIDVATYLSVRALQ,not soluble
7,MSLLREKAVPIRIPDQLPASDVLRNENIFVMSESRASTQEIRPLKVLLLNLMPKKIETETQFLRLLSNSPLQVDIELLRIDDRPSKNTPEEHLNTFYRQFELVKNRNFDGLIITGAPLGLVQFEDVAYWQHLQNIMAWAKAHVTSTLYICWAAQAGLKLLYNLPKRTREEKLSGVYYHDIHKPFHPLLRGFDDRFLAPHSRYADFDAEFLAEHTDLDILATSDVAGVYLAATKDKRNVFVTGHPEYDAYTLHGEYVRDLGEGLNPAIPVNYYPNDNPDNKPCASWRSHGHLLFANWLNYCVYQQTPYDLEKFSEANFTKDEEGHHHHHH,soluble
8,MTFVPLNPIPLKDRTSMIFLQYGQIDVLDGAFVLIDKTGIRTHIPVGSVACIMLEPGTRVSHAAVRLASTVGTLLVWVGEAGVRVYSSGQPGGARADKLLYQAKLALDDDLRLKVVRKMYELRFREPPPARRSVEQLRGIEGSRVRATYALLAKQYGVKWHGRNYDPKDWEKGDVVNRCISAATSCLYGISEAAILAAGYAPAIGFIHSGKPLSFVYDIADIIKFESVVPKAFEIAARHPAEPDKEVRLACRDIFRSSKLTGKLIPLIEEVLAAGEIEPPQPAPDMLPPAIPEPESLGDSGHRGHG,not soluble
9,MAHHHHHHMDTTTLKEADMNQMIIQLMEREKKKKKKKNIYEQKKMEPQNYSHMKKFKISPKEEKSLNKEEIKSHLINFFQEQEKIYKDEELNTKNYIIDETKKKEKEVYLNGYYIYCQDFKNEYNNYFNSFIKESEDIKKDLKDLQIQYMDDKILLGNKRKMELDNMLHFYKEKLLDIKNHWDTKNFCDDNLKNIVYDILNVIN,not soluble
10,MSLSGIYERLQSLESLDLKSLDKNRTMLLIVDINKGFAKEGALYSDRIEKLISPISNLANYALNSGIRVKAFTDYHTEDSIELKAYPKHCMKDTDEWELVDELNLEGIEVIKKNSTNGFLEENFILNKEEIDNVIIVGDCTDICIYQLAISLRAEFNRVNKDGEIYVPKKLVDTFDMPMHKANFMNYVFLNSMLDNGVKVIEDIILDEGHHHHHH,soluble
11,MAHHHHHHMGCVNCKKAKRRKDHPTLEEAAARETERERWAAAEQGFAAQNLYTSVHAANSLPLTEREGATPLPATPGRLENVPQISAAAAAPGETENGRGWNSKKKSNSQATGKADNDSTAAALARVTRTAAPSESSRETPKGRRNKHQYRCHPGVSSWSDGSLPLSVDSVGSAKCPHSSSSSSSSSAQTYKSKKGAEDAKKHGSPGSITAAEIWPQENSDDSVAQGHLNSASHSQTATAWLHINGLTAAGTTSSTNARQTRQPKMYHRSSNVSSDSRSNATPPGMETKVYPSADALDDGPSDWGSTSHDVPAAIPAPNTSVESGGAAAEASSLPNRAPFEPYSDLGSRDVTDYLPPYEWAPRTLPVPSPLRACGPVDMAQWEDGENQFCGLAAAGTTARFQDPVVNVSAEGATTSNSAVAEGNYGASHPFALHTFYPRLPPAQWSSSSSDDTINGPEASAAAFDYPHLPVNAFIQKAHPHQQQPTYRAMYEGDASVRYSPAGYASHEATPRRAVPPSLVDVHVSEAVGYASPPLVNNAHSFYPSRALLPMHHSHAVPDSGSGKPMAYSHALPAMTTSAPQIYHDGNRNRSGNISIVSIGGGVHPHKPVSYLFDSSMDDWLQSRHAQPPQRQLYGESVDMW,soluble
12,MGSDKIHHHHHHMQNQPPFIINSTYHREESKDIEFKSIASQHPVKKIVNHAEEYITGFLNALVEGQLYIGIDDAGKILGVKLSRSERDEIQKIIPNKLRNTDPIVSPSLYDIAFYNVLNEEQKDIEDLFVVNISVLGVDESQFYRTSSREYFLYKTTGGSTYLKTGTDCIKLNTTEIAQEIQKRKQKYLKQELDNIDDKLLQNPDNRSLLKEKANIAKLMGDIEKMDESYKRLINLNPNNSRTRVDYASAHKSIGDLEGALDILEDALKVDGDNLSILKTKGEILLGSDSSDKVKEAFQTYETALKLNPEDYTIITQIGIALRKLGKYKESIKVFNLALAKSPHYRAAKYEKRITYHKMFEGGIRI,not soluble
13,MIPITPTIALDDAEIEERFIRSSGPGGQNVNKVSTAVQLRFDVAGSPNLPGWVKHRLSVLAGSRLTGEGVLVLTAQSQRTQEANRREAVERLVALIQAACHRDKPRRPTRPTKGSQTRRMDGKTLRGAIKKGRQSKPSLDLEHHHHHH,soluble
14,MRGSHHHHHHMSDEEHTFETADAGSSATYPMQCSALRKNGFVVIKSRPCKIVDMSTSKTGKHGHAKVHLVAIDIFTGKKLEDLSPSTHNMEVPVVKRNEYQLLDIDDGFLSLMNMDGDTKDDVKAPEGELGDSLQTAFDEGKDLMVTIISAMGEEAAISFKEAARTD,soluble
15,MENPHEQVQANILSRIIGNVKRLNESVAILNQELVTINNRNKNLEIMGAICDNYHSSVQFNLEATNNKKPPL,not soluble
16,MSKVMNALKQSQQKYLQAQPVSRRTYTEQEPTAMNPSRWLHLALWLVPGLVTAGVMTYQRYELVQQEVANRQTEPTTVQVDAPLERLAYPEFQDLQPTFVESGLDEPYPEEDVTALADNIVAPPATIQASGQQSASNKALGDLDLTQLSPELALRVQAIMRDQSSEPATPSTPTSAAVSLTQHSDRYQGQLPALNFQMHAFSSNEQKRWIKVNGVEYREGDMLTPEVKLESIKPQSSVIIFGGEEIEIPALYDWKG,not soluble
17,MVNFTVDEIRALMDRKRNIRNMSVIAHVDHGKSTLTDSLVSKAGIIAGSKAGETRFTDTRKDEQERCITIKSTAISLFFELEKKDLEFVKGENQFETVEVDGKKEKYNGFLINLIDSPGHVDFSSEVTAALRVTDGALVVVDCVSGVCVQTETVLRQAIAERIKPVLFMNKMDRALLELQLGAEELFQTFQRIVENINVIIATYGDDDGPMGPIMVDPSIGNVGFGSGLHGWAFTLKQFAEMYAGKFGVQVDKLMKNLWGDRFFDLKTKKWSSTQTDESKRGFCQFVLDPIFMVFDAVMNIKKDKTAALVEKLGIKLANDEKDLEGKPLMKVFMRKWLPAGDTMLQMIAFHLPSPVTAQKYRMEMLYEGPHDDEAAVAIKTCDPNGPLMMYISKMVPTSDKGRFYAFGRVFSGKVATGMKARIQGPNYVPGKKEDLYEKTIQRTILMMGRFIEPIEDIPSGNIAGLVGVDQYLVKGGTITTYKDAHNMRVMKFSVSPVVRVAVEAKNPADLPKLVEGLKRLAKSDPMVQCIFEESGEHIIAGAGELHLEICLKDLEEDHACIPLKKSDPVVSYRETVQSESNQICLSKSPNKHNRLHCTAQPMPDGLADDIEGGTVNARDEFKARAKILAEKYEYDVTEARKIWCFGPDGTGPNLLMDVTKGVQYLNEIKDSVVAGFQWATREGVLSDENMRGVRFNVHDVTLHADAIHRGGGQIIPTARRVFYASVLTAEPRLLEPVYLVEIQCPEAAVGGIYGVLNRRRGHVFEESQVTGTPMFVVKAYLPVNESFGFTADLRSNTGGQAFPQCVFDHWQVLPGDPLEAGTKPNQIVLDTRKRKGLKEGVPALDNYLDKM,not soluble
18,MTGNVLNYYAGGNTARGFHNLYEENLKGLDRLFILKGGPGTGKSSLIKAIGREWIEKGYDIEFLHCSSDNKSVDGVIIPKLKVGIVDGTSPHVIEPKMPGVVEEYINLGIAWDSDKLRKQKLEIERFVSEASKAFQSAYARFKEALVIHDEWEKIYIDNIDFNKANELTNQLIQKLFADKSGRQSLVKHRFLGAATPKGAVDFVPNLTEGLPHRYFIKGRPGSGKSTMLKKLAKAAEEKGFEVEVYHCGFDPNSLDMVIVRELGFAIFDSTAPHEYFPSREGDEIIDMYALIVTPGTDEKYAKEIRDVSIQYKAKMNEAMSFLAKAKSIRDKLERIYIAAMDFSIVDAYKEEIQKEFERIAATVIEKQQ,not soluble
